Source: patent US20230406935A1 (F STAR THERAPEUTICS, published 2023)
Like-named read-outs stand apart in the source and are kept apart here.

Legend:
[1] = molecular target: T1, Human PD-L1 expressed on cells (human, UniProt Q9NZQ7 19-290); experiment: cell-based or functional assay
[2] = molecular target: T2, Cynomolgus PD-L1 expressed on HEK 293 cells (cynomolgus, UniProt Q9NZQ7 19-290 (human entry)); experiment: flow cytometry, HEK293 cells overexpressing the target, anti-human Fc 488
T2 construct: also called cell-expressed cynomolgus PD-L1
T2 sequence (Q9NZQ7 other isoform, or with tags, fused parts or gaps limits assumed): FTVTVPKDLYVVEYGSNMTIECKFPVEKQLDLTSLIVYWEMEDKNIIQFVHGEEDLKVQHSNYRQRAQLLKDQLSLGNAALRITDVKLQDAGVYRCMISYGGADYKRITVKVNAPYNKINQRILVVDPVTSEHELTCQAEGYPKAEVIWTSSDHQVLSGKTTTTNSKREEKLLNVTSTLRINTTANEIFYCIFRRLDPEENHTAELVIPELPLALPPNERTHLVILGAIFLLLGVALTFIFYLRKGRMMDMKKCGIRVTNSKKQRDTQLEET
Description: (§1) Cell binding assays were performed by incubating Fcabs or mAb² proteins with either control HEK293 cells or HEK293 cells overexpressing hPD-L1 or cynomolgus PD-L1 cells for 1 hour at 4° C. Fcab/mAb binding was subsequently detected using an anti-human Fc 488 detection antibody. Fluorescent signal intensities were measured using a FACS canto.

[3] = molecular target: T1, Human PD-L1 expressed on cells; experiment: as above
Description: as §1

[4] = molecular target: T3, Monomeric cynomolgus PD-L1 (Acro Biosciences PD1-C52H4) (cynomolgus, UniProt Q9NZQ7 19-238 (human entry)); experiment: SPR Biacore T200, mAb^2 captured by anti-Fab on CM5, monomeric antigen in flow, 1:1 fit
T3 construct: also called cynomolgus monomeric PD-L1
T3 sequence (Q9NZQ7 other isoform, or with tags, fused parts or gaps limits assumed): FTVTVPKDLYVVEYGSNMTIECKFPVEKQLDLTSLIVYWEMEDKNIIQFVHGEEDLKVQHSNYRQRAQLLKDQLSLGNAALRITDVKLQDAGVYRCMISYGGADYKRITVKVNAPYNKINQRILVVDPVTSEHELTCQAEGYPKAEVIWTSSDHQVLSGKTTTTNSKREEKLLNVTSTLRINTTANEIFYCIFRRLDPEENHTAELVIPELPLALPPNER

[5] = molecular target: T4, Monomeric His-tagged human PD-L1 (Acro biosystems PD1-H5229) (human, UniProt Q9NZQ7 19-238); experiment: as above
T4 construct: also called hPD-L1-his; PD-L1-his
T4 sequence (Q9NZQ7 19-238 limits assumed): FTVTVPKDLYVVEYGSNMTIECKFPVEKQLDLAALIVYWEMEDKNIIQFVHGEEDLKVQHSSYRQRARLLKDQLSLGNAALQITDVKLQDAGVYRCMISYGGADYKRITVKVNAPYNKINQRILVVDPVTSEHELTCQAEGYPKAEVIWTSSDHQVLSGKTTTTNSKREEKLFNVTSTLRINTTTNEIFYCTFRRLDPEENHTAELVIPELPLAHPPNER

[6] = molecular target: T4, Monomeric His-tagged human PD-L1 (Acro …); experiment: off-rate, binding to hPD-L1, mock mAb^2; instrument not stated
[7] = molecular target: T1, Human PD-L1 expressed on cells; experiment: cell-based or functional assay; remark: listed apart in the source
[8] = molecular target: T4, Monomeric His-tagged human PD-L1 (Acro …); experiment: off-rate on PD-L1, mock mAb^2; instrument not given
[9] = molecular target: T1, Human PD-L1 expressed on cells; experiment: cell-based or functional assay; remark: listed apart in the source
[10] = molecular target: T4, Monomeric His-tagged human PD-L1 (Acro …); experiment: SPR Biacore T200 as Example 5.1, anti-Fab capture, monomeric hPD-L1-his
Description: Fcab and mAb² binding to human PD-L1 was assessed by both BIAcore and in a cell binding assay. To measure the affinity of the clones to monomeric hPD-L1-his, the mAb² were captured using an anti-Fab antibody coated on a CM5 chip (GE 28-9582-20 AC) and Fcabs were captured using a Protein A chip (GE 29127556) using a Biacore T200 (GE). To minimize mass transport effects, the capture level was minimized to 200RU and a fast flow rate of 75 μl/min was used. […] The analysis of the data was done using the Biacore T200 evaluation software. Curves subtracted against a blank flow cell and a run with no antigen were analysed using a 1:1 fitting model with no bulk analysis and Rmax analysed locally.
The selected CH3 domain sequences were subcloned and expressed in “mock” (MSL109) mAb² format with the LALA mutation in the CH2 domain, as described in Example 4.2.1, for further screening.

[11] = molecular target: T3, Monomeric cynomolgus PD-L1 (Acro …); experiment: SPR Biacore T200, Fcab captured on protein A chip, monomeric antigen in flow, 1:1 fit
[12] = molecular target: T4, Monomeric His-tagged human PD-L1 (Acro …); experiment: as above
[13] = molecular target: T5, Biotinylated hPD-L1-Fc-Avi (human, UniProt Q9NZQ7 19-238); experiment: cell-based RBA, blocking of hPD-L1-Fc-Avi binding to HEK293 hCD80 cells
T5 sequence (Q9NZQ7 19-238 limits assumed): as above
Description: (§2) The ability of the Fcabs and mock mAb² to block hPD-1/hPD-L1 and hPD-L1/hCD80 interactions was tested in cell-based Receptor Binding Assays (RBA). […] The mix was incubated for another hour with HEK293 cells overexpressing either hPD-1 or hCD80.

[14] = molecular target: T5, Biotinylated hPD-L1-Fc-Avi; experiment: cell-based RBA, blocking of hPD-L1-Fc-Avi binding to HEK293 hPD-1 cells
Description: as §2

T1 sequence (Q9NZQ7 19-290 limits assumed): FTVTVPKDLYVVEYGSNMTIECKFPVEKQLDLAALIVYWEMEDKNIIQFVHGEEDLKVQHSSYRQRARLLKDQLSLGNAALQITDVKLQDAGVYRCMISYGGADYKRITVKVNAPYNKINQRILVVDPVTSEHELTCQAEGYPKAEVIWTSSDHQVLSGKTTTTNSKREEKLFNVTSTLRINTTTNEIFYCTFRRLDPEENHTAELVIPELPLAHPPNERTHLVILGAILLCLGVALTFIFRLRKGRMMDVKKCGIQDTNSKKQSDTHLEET

Binder | DO11.10 T cell activation assay EC50 [1] [nM] | Kd [2] [nM] | Kd [3] [nM] | Kd [4] [nM] | Kd [5] [nM] | koff [6] [s⁻¹] | DO11.10 EC50 [7] [nM] | koff [8] [s⁻¹] | DO11.10 EC50 [9] [nM] | Kd [10] [nM] | koff [10] [s⁻¹] | Kd [11] [nM] | Kd [12] [nM] | EC50 [13] [nM] | EC50 [14] [nM]
FS17-33-288AA/HelD1.3 mock mAb^2 (bispecific antibody, human IgG1, kappa, L234A L235A, also called F17-33-288AA/HelD1.3; F17-33-288AA/HELD1.3) heavy: QVQLQESGPGLVRPSQTLSLTCTVSGSTFSGYGVNWVRQPPGRGLEWIGMIWGDGNTDYNSALKSRVTMLVDTSKNQFSLRLSSVTAADTAVYYCARERDYRLDYWGQGSLVTVSSASTKGPSVFPLAPSSKSTSGGTAALGCLVKDYFPEPVTVSWNSGALTSGVHTFPAVLQSSGLYSLSSVVTVPSSSLGTQTYICNVNHKPSNTKVDKKVEPKSCDKTHTCPPCPAPEAAGGPSVFLFPPKPKDTLMISRTPEVTCVVVDVSHEDPEVKFNWYVDGVEVHNAKTKPREEQYNSTYRVVSVLTVLHQDWLNGKEYKCKVSNKALPAPIEKTISKAKGQPREPQVYTLPPSRDESGYWVSLTCLVKGFYPSDIVVEWESNGEPQYWAKTTPPVLDSDGSFFLYSKLTVSNWRWQIDDFSCSVMHEALHNHYTQKSLSLSPGK light: DIQMTQSPASLSASVGETVTITCRASGNIHNYLAWYQQKQGKSPQLLVYNAKTLADGVPSRFSGSGSGTQYSLKINSLQPEDFGSYYCQHFWSTPRTFGGGTKLEIKRTVAAPSVFIFPPSDEQLKSGTASVVCLLNNFYPREAKVQWKVDNALQSGNSQESVTEQDSKDSTYSLSSTLTLSKADYEKHKVYACEVTHQGLSSPVTKSFNRGEC | 0.428 | 7.8 | 15.2 | 2 | 1.43 | – | – | – | – | – | – | – | – | – | –
FS17-33-334AA/HelD1.3 mock mAb^2 (bispecific antibody, human IgG1, kappa, L234A L235A) heavy: QVQLQESGPGLVRPSQTLSLTCTVSGSTFSGYGVNWVRQPPGRGLEWIGMIWGDGNTDYNSALKSRVTMLVDTSKNQFSLRLSSVTAADTAVYYCARERDYRLDYWGQGSLVTVSSASTKGPSVFPLAPSSKSTSGGTAALGCLVKDYFPEPVTVSWNSGALTSGVHTFPAVLQSSGLYSLSSVVTVPSSSLGTQTYICNVNHKPSNTKVDKKVEPKSCDKTHTCPPCPAPEAAGGPSVFLFPPKPKDTLMISRTPEVTCVVVDVSHEDPEVKFNWYVDGVEVHNAKTKPREEQYNSTYRVVSVLTVLHQDWLNGKEYKCKVSNKALPAPIEKTISKAKGQPREPQVYTLPPSRDESGYWVSLTCLVKGFYPSDIAVEWESNGEPQYWAKTTPPVLDSDGSFFLYSKLTVSNWRWQLDDFSCSVMHEALHNHYTQKSLSLSPGK light: DIQMTQSPASLSASVGETVTITCRASGNIHNYLAWYQQKQGKSPQLLVYNAKTLADGVPSRFSGSGSGTQYSLKINSLQPEDFGSYYCQHFWSTPRTFGGGTKLEIKRTVAAPSVFIFPPSDEQLKSGTASVVCLLNNFYPREAKVQWKVDNALQSGNSQESVTEQDSKDSTYSLSSTLTLSKADYEKHKVYACEVTHQGLSSPVTKSFNRGEC | 0.934 | 0.91 | 8.9 | 1.9 | 1.45 | 0.000291 | 0.403 | 0.000372 | – | – | – | – | – | – | –
FS17-33-488AA/MSL109 (bispecific antibody, human IgG1, kappa, L234A L235A) heavy: EEQVLESGGGLVKPGGSLRLSCAASGFTFSPYSVFWVRQAPGKGLEWVSSINSDSTYKYYADSVKGRFTISRDNAENSIFLQMNSLRAEDTAVYYCARDRSYYAFSSGSLSDYYYGLDVWGQGTTVIVSSASTKGPSVFPLAPSSKSTSGGTAALGCLVKDYFPEPVTVSWNSGALTSGVHTFPAVLQSSGLYSLSSVVTVPSSSLGTQTYICNVNHKPSNTKVDKKVEPKSCDKTHTCPPCPAPEAAGGPSVFLFPPKPKDTLMISRTPEVTCVVVDVSHEDPEVKFNWYVDGVEVHNAKTKPREEQYNSTYRVVSVLTVLHQDWLNGKEYKCKVSNKALPAPIEKTISKAKGQPREPQVYTLPPSRDEEGYWVSLTCLVKGFYPSDIAVEWESNGEPQYWAKTTPPVPDSDGTFFLYSKLTVSNWRWQLGDAFSCSVMHEALRNHYTQKSLSLSPGK light: DIVMTQSPLSLSVTPGEPASISCRSSQSLLHTNGYNYLDWYVQKPGQSPQLLIYLASNRASGVPDRFSGSGSGTDFTLKISRVETEDVGVYYCMQALQIPRTFGQGTKVEIKRTVAAPSVFIFPPSDEQLKSGTASVVCLLNNFYPREAKVQWKVDNALQSGNSQESVTEQDSKDSTYSLSSTLTLSKADYEKHKVYACEVTHQGLSSPVTKSFNRGEC | – | – | – | – | – | – | – | – | 3.25 | 0.36 | 0.00036 | – | – | – | –
Fcab FS17-33-289 (designed binder) TCPPCPAPELLGGPSVFLFPPKPKDTLMISRTPEVTCVVVDVSHEDPEVKFNWYVDGVEVHNAKTKPREEQYNSTYRVVSVLTVLHQDWLNGKEYKCKVSNKALPAPIEKTISKAKGQPREPQVYTLPPSRDESGYWVSLTCLVKGFYPSDIVVEWESNGEPQYWAKTTPPVLDSDGSFFLYSKLTVSNWRWQLDDFSCSVMHEALHNHYTQKSLSLSPGK | – | 0.44 | 1 | – | – | – | – | – | – | – | – | 0.66 | 0.54 | 9.2 | 10.1
Fcab FS17-33-334 (designed binder) TCPPCPAPELLGGPSVFLFPPKPKDTLMISRTPEVTCVVVDVSHEDPEVKFNWYVDGVEVHNAKTKPREEQYNSTYRVVSVLTVLHQDWLNGKEYKCKVSNKALPAPIEKTISKAKGQPREPQVYTLPPSRDESGYWVSLTCLVKGFYPSDIAVEWESNGEPQYWAKTTPPVLDSDGSFFLYSKLTVSNWRWQLDDFSCSVMHEALHNHYTQKSLSLSPGK | – | 0.68 | 2.06 | – | – | – | – | – | – | – | – | 2.18 | 1.93 | 0.55 | 0.99
Fcab FS17-33-296 (designed binder) TCPPCPAPELLGGPSVFLFPPKPKDTLMISRTPEVTCVVVDVSHEDPEVKFNWYVDGVEVHNAKTKPREEQYNSTYRVVSVLTVLHQDWLNGKEYKCKVSNKALPAPIEKTISKAKGQPREPQVYTLPPSRDESGYWVSLTCLVKGFYPSDIVVEWESNGEPQYWAKTTPPVLDSDGSFFLYSKLTVSNWRWQVDDFSCSVMHEALHNHYTQKSLSLSPGK | – | 0.5 | 1 | – | – | – | – | – | – | – | – | 0.87 | 0.73 | 8.8 | 9
Fcab FS17-33-288 (designed binder) TCPPCPAPELLGGPSVFLFPPKPKDTLMISRTPEVTCVVVDVSHEDPEVKFNWYVDGVEVHNAKTKPREEQYNSTYRVVSVLTVLHQDWLNGKEYKCKVSNKALPAPIEKTISKAKGQPREPQVYTLPPSRDESGYWVSLTCLVKGFYPSDIVVEWESNGEPQYWAKTTPPVLDSDGSFFLYSKLTVSNWRWQIDDFSCSVMHEALHNHYTQKSLSLSPGK | – | 2.6 | 2.5 | – | – | – | – | – | – | – | – | 2.1 | 1.6 | 0.79 | 2.8
